Source: PMC2112703

Target: rabbit skeletal muscle actin (rabbit), P68135
Test: cross-linking
Conditions: remark: other sources report otherwise

B1: depactin (actin-depolymerizing protein from starfish oocytes), P20690 1-150 (natural protein)
chain: PQSGTALDENVKEEIRAFKMDQSKVKVPWMLLEIVQNDDRIDVVKVTKKAGPSDNLETLREELKQREVVYFVLDYEPSEEKRAKHNIPKGKTYPLTCFWSMETANIKLKMKYSSTVGTLKSATSTLKTYLEAHDFDDLSEEAIGDKIKNF
- stoichiometry N: 1
